Test [1] concerns the target H3N2流感病毒血凝素蛋白 (A/Texas/50/2012) (H3N2 influenza A virus (A/Texas/50/2012)). Kind of test: indirect ELISA on coated H3N2 hemagglutinin, hybridoma culture supernatant. In general terms: In an ELISA, binding on a coated surface is turned into a signal by an enzyme label.
For test [2] the target is unchanged. Kind of test: indirect ELISA on coated H3N2 hemagglutinin, ascites.

B1: 抗H3N2流感病毒血凝素蛋白单克隆抗体ZJU32-01 (antibody, V domains shown)
VH: QVQLQQSGAELMKPGASVKISCKATGYIFSSYWIEWVKQRPGHGLEWIGEILPGSGRTNYKEIFKGKATFTADTSSNTAYMQLSSLTSEDSAVYYCARTRTTGSSDWGQGTTLTVSS
VL: DVLMTQTPLSLPVSLGDQASISCRSSQTTVHSNGNTYLEWYLQKPGQSPKLLIYKVSNRFFGVPDRFSGSGSGTDFTLKISRVEAEDLGVYYCFQGSHVPYTFGGGTKLEIK
For the molecule B1, the 效价 (ELISA titer) (dilution (1:x)) was found to be 64 in test [1] and 2048 in test [2].

Source of the values: patent CN114349852A.
